The values below come from patent publication US20170360911A1 (SAPPORO MEDICAL UNIVERSITY, published 2017).

One assay deals with T1, HLA-A*24:02 (human).
T1 construct: whole, on cells; Empty class I molecule on T2-A24 cells
The experiment in a line: T2-A24 MHC class I stabilization, flow cytometry, anti-HLA-A24 17A10-FITC, peptide 100 ug/mL.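 Also: peptide exposure stabilizes otherwise empty class I molecules on T2 cell surfaces, so surface class I level reflects how strongly the peptide binds.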

Another assay deals with T2, HLA-A*02:01 (human).
T2 construct: whole, on cells; Empty class I molecule on TAP-deficient T2-A24 cells; detected with anti-HLA-A02 antibody BB7.2
The experiment in a line: T2-A24 MHC class I stabilization, flow cytometry, anti-HLA-A02 BB7.2-FITC, peptide 100 ug/mL.

Protocol for HLA-A*24:02: T2 cells can usually only express a low level of empty MHC class I molecules on the cell surface. However, when a peptide that can bind to the MHC class I molecule is added, the empty MHC class I molecule binds to the peptide and can be present on the cell surface in a stable manner. Therefore, the cell surface MHC class I expression level depends on the MHC class I binding affinity of a peptide.
The T2-A24 cells were subcultured at 37° C. under 5% CO₂. […] These peptides were dissolved in DMSO and further diluted by 200 times with RPMI 160 medium. A cell suspension and the peptide solution were mixed and cultured under conditions of 5% CO₂ and 26° C. for 16 to 18 hours. Co-culturing was carried out at a temperature of 37° C. for a further 3 hours, the supernatant was then removed by centrifuging, and cells were isolated. […] Subsequently, the cells were washed with 3% FBS-containing PBS, 4% paraformaldehyde phosphate buffer was added, and the mixture was allowed to stand at room temperature for 10 minutes to thus fix the cells. The fixed cells were subjected to measurement of FITC fluorescence intensity by a flow cytometer (FACScan). The mean fluorescence intensity (MFI) was calculated as a solvent ratio.

B1: As405_9 (peptide)
peptide: PLLSLPLSL
With B1, the entries for the “MFI (solvent ratio)” value with HLA-A*24:02 and with HLA-A*02:01 were 2.8 ratio to solvent and 2.2 ratio to solvent, respectively.

B2: As265_10 (peptide)
peptide: HVLMHMMLEA
Consider B2, for which, in the assay with HLA-A*02:01, the “MFI (solvent ratio)” value was 2 ratio to solvent.

B3: As289_10 (peptide)
peptide: IQYVLKVTSV
Consider B3, for which the “MFI (solvent ratio)” value with HLA-A*24:02 is 1.5 ratio to solvent; in the assay with HLA-A*02:01, 1.2 ratio to solvent.

B4: As310_10 (peptide)
peptide: LLLNHGAARI
In the case of B4, the “MFI (solvent ratio)” value with HLA-A*24:02 was 1.2 ratio to solvent.

B5: As124_10 (peptide)
peptide: KILCDRGAKL
For the molecule B5, the “MFI (solvent ratio)” value with HLA-A*24:02 is 2.2 ratio to solvent; in the assay with HLA-A*02:01 it was 1.6 ratio to solvent.

B6: As186_10 (peptide)
peptide: GLSELVAFYV
Consider B6, for which the “MFI (solvent ratio)” value with HLA-A*24:02 is 1.1 ratio to solvent; with HLA-A*02:01, 2.6 ratio to solvent.

B7: As152_9 (peptide)
peptide: SILCAKQLV
Take B7: in the assay with HLA-A*02:01, the “MFI (solvent ratio)” value was 1.8 ratio to solvent.

B8: As408_10 (peptide)
peptide: SLPLSLKKYL
Turning to B8, the “MFI (solvent ratio)” value with HLA-A*24:02 and in the assay with HLA-A*02:01 was 1 ratio to solvent each time.

B9: As340_9 (peptide)
peptide: VVVNAYEHI
Take B9: the “MFI (solvent ratio)” value in the assay with HLA-A*24:02 was 1 ratio to solvent; with HLA-A*02:01, 0.9 ratio to solvent.

B10: As383_10_5L (peptide)
peptide: TLMHLSRCAI
On to B10, for which the “MFI (solvent ratio)” value is 1 ratio to solvent in the assay with HLA-A*24:02 and 2.4 ratio to solvent in the assay with HLA-A*02:01.

B11: As157_10 (peptide)
peptide: KQLVWRGANV
Take B11: the results for the “MFI (solvent ratio)” value with HLA-A*24:02 and with HLA-A*02:01 were 1 ratio to solvent and 1.2 ratio to solvent, respectively.

B12: As318_10 (peptide)
peptide: RIYPPQFHKV
Regarding B12, the “MFI (solvent ratio)” value with HLA-A*24:02 was 3.6 ratio to solvent.

B13: As311_9 (peptide)
peptide: LLNHGAARI
In the case of B13, the “MFI (solvent ratio)” value in the assay with HLA-A*24:02 and with HLA-A*02:01 was 0.9 ratio to solvent each time.

B14: As135_10 (peptide)
peptide: CYSLSGHTAL
B14: the results for the “MFI (solvent ratio)” value with HLA-A*24:02 and with HLA-A*02:01 were 2.4 ratio to solvent and 1.6 ratio to solvent, respectively.

B15: As92_10 (peptide)
peptide: LVLLDHNATI
In the case of B15, the “MFI (solvent ratio)” value is 1.1 ratio to solvent with HLA-A*24:02 and 2.6 ratio to solvent with HLA-A*02:01.

B16: As76_10 (peptide)
peptide: ATGLHLSVLF
With B16, the “MFI (solvent ratio)” value with HLA-A*24:02 was 2.1 ratio to solvent; with HLA-A*02:01 it was 0.9 ratio to solvent.

B17: As192_10 (peptide)
peptide: AFYVEHGAIF
On to B17, for which the “MFI (solvent ratio)” value is 2.2 ratio to solvent with HLA-A*24:02 and 1.1 ratio to solvent in the assay with HLA-A*02:01.

B18: As145_10 (peptide)
peptide: HFCTTPSSIL
As to B18, the “MFI (solvent ratio)” value was 1.2 ratio to solvent in the assay with HLA-A*24:02 and 1 ratio to solvent with HLA-A*02:01.

B19: As80_9 (peptide)
peptide: HLSVLFGHV
B19: the “MFI (solvent ratio)” value with HLA-A*24:02 was 2.1 ratio to solvent; with HLA-A*02:01, 1.6 ratio to solvent.

B20: As211_10 (peptide)
peptide: PLAIAAYWAL
Turning to B20, the figures for the “MFI (solvent ratio)” value with HLA-A*24:02 and with HLA-A*02:01 were 2.1 ratio to solvent and 1.1 ratio to solvent, respectively.

B21: As416_10 (peptide)
peptide: YLLLEPEGII
As for B21, the “MFI (solvent ratio)” value with HLA-A*02:01 was 2.8 ratio to solvent.

B22: As307_10 (peptide)
peptide: CYQLLLNHGA
On to B22, for which the “MFI (solvent ratio)” value in the assay with HLA-A*24:02 is 1.9 ratio to solvent; with HLA-A*02:01, 2.5 ratio to solvent.

B23: As236_10 (peptide)
peptide: RMLLDYKAEV
Consider B23, for which the “MFI (solvent ratio)” value with HLA-A*24:02 was 1 ratio to solvent; with HLA-A*02:01, 3.3 ratio to solvent.

B24: As87_9 (peptide)
peptide: HVECLLVLL
With B24, the “MFI (solvent ratio)” value in the assay with HLA-A*24:02 was 1.6 ratio to solvent; with HLA-A*02:01, 1.5 ratio to solvent.

B25: As368_9 (peptide)
peptide: DFYHSLFTV
In the case of B25, the entries for the “MFI (solvent ratio)” value with HLA-A*24:02 and with HLA-A*02:01 were 1.1 ratio to solvent and 1 ratio to solvent, respectively.

B26: As365_12 (peptide)
peptide: KYWDFYHSLFTV
For B26, the “MFI (solvent ratio)” value in the assay with HLA-A*24:02 was 2.4 ratio to solvent; in the assay with HLA-A*02:01 it was 1 ratio to solvent.

B27: As403_9 (peptide)
peptide: AIPLLSLPL
For B27, the “MFI (solvent ratio)” value with HLA-A*24:02 was 1.1 ratio to solvent; in the assay with HLA-A*02:01, 0.9 ratio to solvent.

B28: As271_10 (peptide)
peptide: MLEAGAEANL
notes: read as 39 from its place between 38 and 40
Regarding B28, the “MFI (solvent ratio)” value with HLA-A*24:02 is 1.2 ratio to solvent; with HLA-A*02:01, 1 ratio to solvent.

B29: As29_9 (peptide)
peptide: DFGKLKAIL
As to B29, the “MFI (solvent ratio)” value with HLA-A*24:02 and in the assay with HLA-A*02:01 was 1 ratio to solvent each time.

B30: As365_9 (peptide)
peptide: KYWDFYHSL
For the molecule B30, the “MFI (solvent ratio)” value was 2.5 ratio to solvent with HLA-A*24:02 and 1.1 ratio to solvent with HLA-A*02:01.

B31: As82_10 (peptide)
peptide: SVLFGHVECL
Consider B31, for which the “MFI (solvent ratio)” value in the assay with HLA-A*24:02 was 2.7 ratio to solvent; in the assay with HLA-A*02:01 it was 3.3 ratio to solvent.

B32: As63_9 (peptide)
peptide: GYWLPSYKL
Consider B32, for which the “MFI (solvent ratio)” value with HLA-A*24:02 was 1.2 ratio to solvent; with HLA-A*02:01 it was 1.1 ratio to solvent.

B33: As70_10 (peptide)
peptide: KLKSSWATGL
For B33, the figures for the “MFI (solvent ratio)” value in the assay with HLA-A*24:02 and with HLA-A*02:01 were 1 ratio to solvent and 1.1 ratio to solvent, respectively.

B34: As184_12 (peptide)
peptide: HFGLSELVAFYV
In the case of B34, the “MFI (solvent ratio)” value in the assay with HLA-A*24:02 is 3.2 ratio to solvent; with HLA-A*02:01, 3.1 ratio to solvent.

B35: As83_10 (peptide)
peptide: VLFGHVECLL
For B35, the “MFI (solvent ratio)” value in the assay with HLA-A*24:02 was 2.8 ratio to solvent; with HLA-A*02:01 it was 3.6 ratio to solvent.

B36: As41_10 (peptide)
peptide: QIDVDTVFEV
notes: 41-50 follows from start and length
As for B36, the “MFI (solvent ratio)” value was 1.1 ratio to solvent in the assay with HLA-A*24:02 and 1.2 ratio to solvent with HLA-A*02:01.

B37: As48_10 (peptide)
peptide: FEVEDENMVL
With B37, in the assay with HLA-A*02:01, the “MFI (solvent ratio)” value is 1 ratio to solvent.

B38: As15_11 (peptide)
peptide: KLVKRNFLEAL
Regarding B38, the “MFI (solvent ratio)” value with HLA-A*24:02 and with HLA-A*02:01 was 1 ratio to solvent each time.

B39: As35_10 (peptide)
peptide: AILIQRQIDV
As for B39, the “MFI (solvent ratio)” value was 1.1 ratio to solvent with HLA-A*24:02 and 3.4 ratio to solvent with HLA-A*02:01.

B40: As301_11 (peptide)
peptide: AAQPEICYQLL
As to B40, the results for the “MFI (solvent ratio)” value with HLA-A*24:02 and in the assay with HLA-A*02:01 were 2 ratio to solvent and 2.6 ratio to solvent, respectively.

B41: As125_9 (peptide)
peptide: ILCDRGAKL
B41: the “MFI (solvent ratio)” value in the assay with HLA-A*24:02 was 1.8 ratio to solvent; with HLA-A*02:01, 1.9 ratio to solvent.

B42: As280_10 (peptide)
peptide: LMDINGCAAI
In the case of B42, the “MFI (solvent ratio)” value is 1.2 ratio to solvent with HLA-A*24:02 and 3.1 ratio to solvent with HLA-A*02:01.

B43: As290_9 (peptide)
peptide: QYVLKVTSV
Turning to B43, the “MFI (solvent ratio)” value in the assay with HLA-A*02:01 was 1 ratio to solvent.

B44: IV9 (peptide)
peptide: IYPPQFHKV
notes: also called ASB4 peptide
For B44, the “MFI (solvent ratio)” value was 3.3 ratio to solvent in the assay with HLA-A*24:02 and 0.9 ratio to solvent with HLA-A*02:01.
